Source: patent US11795460B2, “Compositions and methods for TTR gene editing and treating ATTR amyloidosis” (Intellia Therapeutics, Inc., priority 2017, dated 2023)
Strand notation (5' to 3'): a small letter for the sugar, then the base; units joined by * are phosphorothioate-linked, units joined directly phosphodiester-linked; [ ] holds rarer units or linkages, { } end groups; capitals alone tell only the bases. m = 2'-O-methyl; r = 2'-OH (RNA)

B1: G000506: TTR Cyno specific sgRNA modified sequence, SEQ ID No. 118; guide sequence of CR005366 (nucleic acid)
guide: mA*mU*mA*rCrCrArGrUrCrCrArGrCrGrArGrGrCrArGrGrUrUrUrUrArGrAmGmCmUmAmGmAmAmAmUmAmGmCrArArGrUrUrArArArArUrArArGrGrCrUrArGrUrCrCrGrUrUrArUrCrAmAmCmUmUmGmAmAmAmAmAmGmUmGmGmCmAmCmCmGmAmGmUmCmGmGmUmGmCmU*mU*mU*mU
B2: G000504: TTR Cyno specific sgRNA modified sequence, SEQ ID No. 116; guide sequence of CR005364 (nucleic acid)
guide: mA*mA*mA*rGrGrCrUrGrCrUrGrArUrGrArGrArCrCrUrGrUrUrUrUrArGrAmGmCmUmAmGmAmAmAmUmAmGmCrArArGrUrUrArArArArUrArArGrGrCrUrArGrUrCrCrGrUrUrArUrCrAmAmCmUmUmGmAmAmAmAmAmGmUmGmGmCmAmCmCmGmAmGmUmCmGmGmUmGmCmU*mU*mU*mU
B3: G000503: TTR Cyno specific sgRNA modified sequence, SEQ ID No. 115; guide sequence of CR005372 (nucleic acid)
guide: mA*mA*mA*rArGrGrCrUrGrCrUrGrArUrGrArGrArCrCrGrUrUrUrUrArGrAmGmCmUmAmGmAmAmAmUmAmGmCrArArGrUrUrArArArArUrArArGrGrCrUrArGrUrCrCrGrUrUrArUrCrAmAmCmUmUmGmAmAmAmAmAmGmUmGmGmCmAmCmCmGmAmGmUmCmGmGmUmGmCmU*mU*mU*mU
B4: G000505: TTR Cyno specific sgRNA modified sequence, SEQ ID No. 117; guide sequence of CR005365 (nucleic acid)
guide: mC*mA*mU*rUrGrArCrArGrCrArGrGrArCrUrGrCrCrUrGrUrUrUrUrArGrAmGmCmUmAmGmAmAmAmUmAmGmCrArArGrUrUrArArArArUrArArGrGrCrUrArGrUrCrCrGrUrUrArUrCrAmAmCmUmUmGmAmAmAmAmAmGmUmGmGmCmAmCmCmGmAmGmUmCmGmGmUmGmCmU*mU*mU*mU

test system: TTR; assay: EC50 and maximum editing in primary cyno hepatocytes treated with LNP formulated U-depleted Spy Cas9 mRNA and sgRNAs (Tables 20, 22); format: cell-based, cynomolgus monkey; design: key: % of sequence reads with indels or substitutions over total reads; settings: Table 22, LNP with U-depleted Spy Cas9 mRNA and cyno specific sgRNAs, dose response
Protocol: (§1) Primary liver hepatocytes. Primary human liver hepatocytes (PHH) and primary cynomolgus liver hepatocytes (PCH) (Gibco) were cultured per the manufacturer's protocol (Invitrogen, protocol 11.28.2012). In brief, the cells were thawed and resuspended in hepatocyte thawing medium with supplements (Gibco, Cat. CM7000) followed by centrifugation at 100 g for 10 minutes for human and 80 g for 4 minutes for cyno. The supernatant was discarded and the pelleted cells resuspended in hepatocyte plating medium plus supplement pack (Invitrogen, Cat. A1217601 and CM3000). Cells were counted and plated on Bio-coat collagen I coated 96-well plates (ThermoFisher, Cat. 877272) at a density of 33,000 cells/well for human or 60,000 cells/well for cyno (or 65,000 cells/well when assaying effects on TTR protein, described further below). Plated cells were allowed to settle and adhere for 6 or 24 hours in a tissue culture incubator at 37° C. and 5% CO2 atmosphere. After incubation cells were checked for monolayer formation and media was replaced with hepatocyte culture medium with serum-free supplement pack (Invitrogen, Cat. A1217601 and CM4000).
(§2) For LNPs prepared using the cross-flow technique, the LNPs were formed by impinging jet mixing of the lipid in ethanol with two volumes of RNA solutions and one volume of water. The lipid in ethanol is mixed through a mixing cross with the two volumes of RNA solution. A fourth stream of water is mixed with the outlet stream of the cross through an inline tee. (See WO2016010840 FIG. 2.) The LNPs were held for 1 hour at room temperature, and further diluted with water (approximately 1:1 v/v). Diluted LNPs were concentrated using tangential flow filtration on a flat sheet cartridge (Sartorius, 100 kD MWCO) and then buffer exchanged by diafiltration into 50 mM Tris, 45 mM NaCl, 5% (w/v) sucrose, pH 7.5 (TSS). Alternatively, the final buffer exchange into TSS was completed with PD-10 desalting columns (GE). If required, formulations were concentrated by centrifugation with Amicon 100 kDa centrifugal filters (Millipore). The resulting mixture was then filtered using a 0.2 μm sterile filter. The final LNP was stored at 4° C. or −80° C. until further use.
(§3) To quantitatively determine the efficiency of editing at the target location in the genome, sequencing was utilized to identify the presence of insertions and deletions introduced by gene editing.
(§4) Primers were designed around the target site within the gene of interest (e.g. TTR), and the genomic area of interest was amplified.
(§5) Additional PCR was performed per the manufacturer's protocols (Illumina) to add chemistry for sequencing. The amplicons were sequenced on an Illumina MiSeq instrument. The reads were aligned to a reference genome (e.g., the human reference genome (hg38), the cynomologus reference genome (mf5), the rat reference genome (rn6), or the mouse reference genome (mm10)) after eliminating those having low quality scores. The resulting files containing the reads were mapped to the reference genome (BAM files), where reads that overlapped the target region of interest were selected and the number of wild type reads versus the number of reads which contain an insertion, substitution, or deletion was calculated.
(§6) The editing percentage (e.g., the “editing efficiency” or “percent editing” or “indel frequency”) is defined as the total number of sequence reads with insertions/deletions (“indels”) or substitutions over the total number of sequence reads, including wild type.
(§7) Lipid nanoparticle formulations of modified sgRNAs targeting human TTR and the cyno matched sgRNA sequences were tested on primary human hepatocytes and primary cyno hepatocytes in a dose response curve. Primary human and cyno hepatocytes were plated as described in Example 1. Both cell lines were incubated at 37° C., 5% CO2 for 24 hours prior to treatment with LNPs. […]

Row | Molecule | Max Editing
1 | B1 | 99.18
2 | B2 | 98.04
3 | B3 | 83.41
4 | B4 | 99.97

test system: TTR; assay: EC50 and maximum editing in primary human hepatocytes treated with LNP formulated U-depleted Spy Cas9 mRNA and sgRNAs (Tables 19, 21); format: cell-based; design: key: % of sequence reads with indels or substitutions over total reads; settings: Table 21, LNP with U-depleted Spy Cas9 mRNA and cyno specific sgRNAs, dose response
Protocol: as §1, §2, §3, §4, §5, §6, §7

Row | Molecule | Max Editing
5 | B1 | 89.49
6 | B2 | 7.16
7 | B4 | 13.48

test system: TTR; assay: TTR editing in primary cyno hepatocytes electroporated with Spy Cas9 protein and sgRNAs (Tables 14, 15); format: cell-based, cynomolgus monkey; settings: Table 15; primary cyno hepatocytes electroporated with Spy Cas9 protein (RNP) and cyno specific sgRNAs
Protocol: as §1
Ribonucleotide formation was performed prior to electroporation or transfection of Spy Cas9 protein loaded with guide RNAs (RNPs) onto cells. For dual guide (dgRNAs), individual crRNA and trRNA was pre-annealed by mixing equivalent amounts of reagent and incubating at 95° C. for 2 min and cooling to room temperature. Single guide (sgRNAs) were boiled at 95° C. for 2 min and cooling to room temperature. The boiled dgRNA or sgRNA was incubated with Spy Cas9 protein in Optimem for 10 minutes at room temperature to form a ribonucleoprotein (RNP) complex.
For RNP electroporation into primary human and cyno hepatocytes, the cells are thawed and resuspended in Lonza electroporation Primary Cell P3 buffer at a concentration of 2500 cells per μL for human hepatocytes and 3500 cells per μL for cyno hepatocytes. A volume of 20 μL of resuspended cells and 5 μL of RNP are mixed together per guide. 20 μL of the mixture is placed into a Lonza electroporation plate. The cells were electroporated using the Lonza nucleofector with the preset protocol EX-147. Post electroporation, the cells are transferred into a Biocoat plate containing pre-warmed maintenance media and placed in a tissue culture incubator at 37° C. and 5% CO2.
Transfected cells were harvested post-transfection at 24, 48, or 72 hours. The genomic DNA was extracted from each well of a 96-well plate using 50 μL/well BuccalAmp DNA Extraction solution (Epicentre, Cat. QE09050) per manufacturer's protocol. All DNA samples were subjected to PCR and subsequent NGS analyses, as described herein.
as §3, §4, §5
The editing percentage (e.g., the “editing efficiency” or “percent editing” or “indel frequency”) is defined as the total number of sequence reads with insertions/deletions (“indels”) or substitutions over the total number of sequence reads, including wild type. […]

Row | Molecule | Avg % Deletion [%] | Avg % Edit [%] | Avg % Insert [%]
8 | B1 | 3.07 | 89.43 | 86.90
9 | B2 | 7.53 | 77.17 | 69.73
10 | B3 | 6.50 | 58.53 | 52.07
11 | B4 | 0.10 | 95.53 | 95.50

test system: TTR; assay: TTR editing in primary cyno hepatocytes treated with LNP formulated Spy Cas9 mRNA (SEQ ID NO: 2) and sgRNAs (Tables 17, 18); format: cell-based, cynomolgus monkey; settings: LNP formulated Spy Cas9 mRNA (SEQ ID NO: 2) and cyno matched sgRNAs, 72 hours post treatment
Protocol: as §1
In general, the lipid nanoparticle components were dissolved in 100% ethanol with the lipid component of various molar ratios. The RNA cargos were dissolved in 25 mM citrate, 100 mM NaCl, pH 5.0, resulting in a concentration of RNA cargo of approximately 0.45 mg/mL. The LNPs were formulated with a lipid amine to RNA phosphate (N:P) molar ratio of about 4.5 or about 6, with the ratio of mRNA to gRNA at 1:1 by weight.
The LNPs were formed by microfluidic mixing of the lipid and RNA solutions using a Precision Nanosystems NanoAssemblr™ Benchtop Instrument, according to the manufacturer's protocol. A 2:1 ratio of aqueous to organic solvent was maintained during mixing using differential flow rates. After mixing, the LNPs were collected, diluted in water (approximately 1:1 v/v), held for 1 hour at room temperature, and further diluted with water (approximately 1:1 v/v) before final buffer exchange. The final buffer exchange into 50 mM Tris, 45 mM NaCl, 5% (w/v) sucrose, pH 7.5 (TSS) was completed with PD-10 desalting columns (GE). If required, formulations were concentrated by centrifugation with Amicon 100 kDa centrifugal filters (Millipore). The resulting mixture was then filtered using a 0.2 μm sterile filter. The final LNP was stored at −80° C. until further use.
as §3, §4, §5, §6
Lipid nanoparticle formulations of modified sgRNAs targeting human TTR and the cyno matched sgRNA sequences were tested on primary human hepatocytes and primary cyno hepatocytes in a dose response curve. Primary human and cyno hepatocytes were plated as described in Example 1. […]

Row | Molecule | 12.5 ng mRNA, 3.9 nM sgRNA % Edit [%]
12 | B1 | 60.13
